These results are taken from US20080019962A1 (DYAX CORP A MASSACHUSETTS, published 2008).

Numbering of substitutions follows the chain as printed.

Sequences and labels used below:
T1: Trypsinogen-IV (UniProt P35030 81-304)
T1 sequence (looked up): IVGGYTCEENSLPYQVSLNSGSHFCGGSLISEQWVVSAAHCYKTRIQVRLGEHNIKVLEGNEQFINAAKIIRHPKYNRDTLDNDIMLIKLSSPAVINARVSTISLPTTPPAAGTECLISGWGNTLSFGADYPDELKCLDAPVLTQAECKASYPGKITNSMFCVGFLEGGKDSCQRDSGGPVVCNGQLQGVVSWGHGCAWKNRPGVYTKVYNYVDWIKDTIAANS

T2: MTSP-1 (UniProt Q9Y5Y6 615-855, limits assumed)
T2 sequence (looked up): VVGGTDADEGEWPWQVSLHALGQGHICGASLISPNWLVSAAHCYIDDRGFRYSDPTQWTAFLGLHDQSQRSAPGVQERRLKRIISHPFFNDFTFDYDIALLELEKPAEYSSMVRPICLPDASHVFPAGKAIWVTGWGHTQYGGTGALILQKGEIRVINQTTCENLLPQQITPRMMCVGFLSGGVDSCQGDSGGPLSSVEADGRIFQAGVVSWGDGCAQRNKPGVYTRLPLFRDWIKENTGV

B1: D2 IgG1 antibody (Fab D2 reformatted) (antibody, V domains shown)
VH: EVQLLESGGGLVQPGGSLRLSCAASGFTFSRYRMYWVRQAPGKGLEWVSSISPSGGDTRYADSVKGRFTISRDNSKNTLYLQMNSLRAEDTAVYYCARGGPRGNKYYFDYWGQGTLVTVSS
VL: DIQMTQSPSSLSASVGDRVTITCRASQTIDNYLNWYQQKPGKAPKLVVYAASTLQTRVPSRFSGSGSGTDFTLTIDSLKPEDFATYFCQQGFSNPWTFGQGTTVAMIR
B2: C9 IgG1 antibody (Fab C9 reformatted) (antibody, V domains shown)
VH: B1 VH with R33P, Y35F, S50Y, P53S, D57F, R59G
VL: QSVLTQPASVSGSPGQSITISCTGTSSDVGHYNYVSWYQQHPGKAPKVMIYDVSSRPSGVSDRFSGSKSGNTASLAISGLQAEDEADYYCSSYTSGDTLYVFGTGTKVTVLG
B3: B5 IgG1 antibody (Fab B5 reformatted) (antibody, V domains shown)
VH: B1 VH
VL: SYELTQPPSVSVSLGQAANISCSGDRLGDKYTSWYQQQSGQSPVLVIYQDKKRPSGIPERFSGSSSGNTATLTISGAQAIDEAAYYCQAWATNVVFGAGTKLTVLG
B4: A2 IgG1 antibody (Fab A2 reformatted) (antibody, V domains shown)
VH: B1 VH
VL: DIQMTQSPSFLSAFVGDRVTITCRASQDIRSDLAWYQQTPGKAPKLLIYAASTLKDGAPSRFSGSGSGTEFTLTISSLHPEDLATYYCQHLNGHPAFGPGTKVNIQR
B5: H10 IgG1 antibody (Fab H10 reformatted) (antibody, V domains shown)
VH: B1 VH
VL: not shown
B6: F8 IgG1 antibody (Fab F8 reformatted) (antibody, V domains shown)
VH: B1 VH with R33H, Y35W, S50G, P53S, G55R, D57I, R59K
VL: DIQMTQSPGTLSLSPGERVTLSCRASQSVTSSDLAWYQQKPGQAPRLLISGASSRATGIPDRFSGSGSGTDFTLTISRLEPEDFAVYYCQQYGNSPGTFGQGTKVEIKR
B7: D5 IgG1 antibody (Fab D5 reformatted) (antibody, V domains shown)
VH: EVQLLESGGGLVQPGGSLRLSCAASGFTFSRYDMHWVRQAPGKGLEWVSSISSSGGYTAYADSVKGRFTISRDNSKNTLYLQMNSLRAEDTAVYYCARGARGTSQGYWGQGTLVTVSS
VL: DIQMTQSPGTLSLSPGERGTLSCRASQFVSYSYLAWYQQKPGQAPRLLIYGASSRAKGIPDRFSGSGSGTDFTLTITRLEPEDFAVYYCQQYVPSVPWTFGQGTKVEVKR

The first assay has as its target Endotheliase-1 (ET1). The assay can be described thus: cell-based or functional assay.
With B1, the “activity against protease in selectivity screen (enzyme assay)” value is less than 5%.
For the molecule B2, the “activity against protease in selectivity screen (enzyme assay)” value is less than 5%.
For B3, the “activity against protease in selectivity screen (enzyme assay)” value is less than 5%.
Take B4: the “activity against protease in selectivity screen (enzyme assay)” value is less than 5%.
Same read-out and setting: to B5 belongs less than 5%; to B6, less than 5%.
Regarding B7, the “activity against protease in selectivity screen (enzyme assay)” value is less than 5%.

In another assay the target is MTSP-10. The assay can be described thus: cell-based or functional assay.
B1: the “activity against protease in selectivity screen (enzyme assay)” value was less than 5%.
With B2, the “activity against protease in selectivity screen (enzyme assay)” value was less than 5%.
For B3, the “activity against protease in selectivity screen (enzyme assay)” value was less than 5%.
In the case of B4, the “activity against protease in selectivity screen (enzyme assay)” value was less than 5%.
In the case of B5, the “activity against protease in selectivity screen (enzyme assay)” value is less than 5%.
Regarding B6, the “activity against protease in selectivity screen (enzyme assay)” value is less than 5%.
Consider B7, for which the “activity against protease in selectivity screen (enzyme assay)” value is less than 5%.

In the next assay the target is MTSP-7. The assay can be described thus: cell-based or functional assay.
As to B1, the “activity against protease in selectivity screen (enzyme assay)” value was less than 5%.
With B2, the “activity against protease in selectivity screen (enzyme assay)” value was less than 5%.
Same read-out and setting: to B3 belongs less than 5%.
Consider B4, for which the “activity against protease in selectivity screen (enzyme assay)” value is less than 5%.
B5: the “activity against protease in selectivity screen (enzyme assay)” value is less than 5%.
B6: the “activity against protease in selectivity screen (enzyme assay)” value was less than 5%.
Turning to B7, the “activity against protease in selectivity screen (enzyme assay)” value was less than 5%.

In the next assay the target is MTSP-6. The assay can be described thus: cell-based or functional assay.
Consider B1, for which the “activity against protease in selectivity screen (enzyme assay)” value was less than 5%.
Still for that read-out and setting: to B2 belongs less than 5%; to B3, less than 5%; to B4, less than 5%.
Consider B5, for which the “activity against protease in selectivity screen (enzyme assay)” value was less than 5%.
B6: the “activity against protease in selectivity screen (enzyme assay)” value is less than 5%.
In the case of B7, the “activity against protease in selectivity screen (enzyme assay)” value was less than 5%.

A further assay concerns the target T1, Trypsinogen-IV. Kind of assay: cell-based or functional assay.
Turning to B1, the “activity against protease in selectivity screen (enzyme assay)” value was less than 5%.
Still for that read-out and setting: to B2 belongs less than 5%.
Regarding B3, the “activity against protease in selectivity screen (enzyme assay)” value was less than 5%.
With B4, the “activity against protease in selectivity screen (enzyme assay)” value was less than 5%.
Take B5: the “activity against protease in selectivity screen (enzyme assay)” value is less than 5%.
As for B6, the “activity against protease in selectivity screen (enzyme assay)” value is less than 5%.
In the case of B7, the “activity against protease in selectivity screen (enzyme assay)” value is less than 5%.

The target in a further assay is T2, MTSP-1. Kind of assay: cell-based or functional assay.
With B1, the “activity against protease in selectivity screen (enzyme assay)” value was less than 5%.
In the case of B2, the “activity against protease in selectivity screen (enzyme assay)” value was less than 5%.
On to B3, for which the “activity against protease in selectivity screen (enzyme assay)” value was less than 5%.
Regarding B4, the “activity against protease in selectivity screen (enzyme assay)” value is less than 5%.
B7: the “activity against protease in selectivity screen (enzyme assay)” value was less than 5%.
